Experiments:
[1] = target: T1, Ago1 (RISC assembled in embryo lysate) (Drosophila melanogaster, UniProt A1Z9J5 1-950); test: competition; let-7 guide; nearly same affinity as fully complementary; RBNS: 20 mM HEPES-KOH pH 7.9, 100 mM KOAc, 3.5 mM Mg(OAc) (magnesium acetate), 0.05% CHAPS, 2 mM DTT, 8% glycerol, BSA, tRNA, 25 C 2 h; filter binding: 25 mM HEPES-KOH pH 7.9, 110 mM KOAc, 3.5 mM magnesium acetate, 2 mM DTT, BSA, tRNA, 8% glycerol, 25 C 2 h; competition: 18 mM HEPES-KOH pH 7.4, 100 mM KOAc, 3 mM magnesium acetate, 5 mM DTT, 0.01% …; conditions: protein: native; g2-g21, G:U at g4
[2] = target: T2, FLAG-Ago1 (Drosophila melanogaster, UniProt A1Z9J5 1-950); test: RBNS; let-7 guide; RBNS: 20 mM HEPES-KOH pH 7.9, 100 mM KOAc, 3.5 mM Mg(OAc) (magnesium acetate), 0.05% CHAPS, 2 mM DTT, 8% glycerol, BSA, tRNA, 25 C 2 h; filter binding: 25 mM HEPES-KOH pH 7.9, 110 mM KOAc, 3.5 mM magnesium acetate, 2 mM DTT, BSA, tRNA, 8% glycerol, 25 C 2 h; competition: 18 mM HEPES-KOH pH 7.4, 100 mM KOAc, 3 mM magnesium acetate, 5 mM DTT, 0.01% IGEPAL, tRNA, 25 C 1 h; conditions: protein: recombinant, tags: FLAG
[3] = target: T2, FLAG-Ago1; test: RBNS; bantam guide; RBNS: 20 mM HEPES-KOH pH 7.9, 100 mM KOAc, 3.5 mM Mg(OAc) (magnesium acetate), 0.05% CHAPS, 2 mM DTT, 8% glycerol, BSA, tRNA, 25 C 2 h; filter binding: 25 mM HEPES-KOH pH 7.9, 110 mM KOAc, 3.5 mM magnesium acetate, 2 mM DTT, BSA, tRNA, 8% glycerol, 25 C 2 h; competition: 18 mM HEPES-KOH pH 7.4, 100 mM KOAc, 3 mM magnesium acetate, 5 mM DTT, 0.01% IGEPAL, tRNA, 25 C 1 h; conditions: protein: recombinant, tags: FLAG
[4] = target: T2, FLAG-Ago1; test: RBNS; miR-184 guide; RBNS: 20 mM HEPES-KOH pH 7.9, 100 mM KOAc, 3.5 mM Mg(OAc) (magnesium acetate), 0.05% CHAPS, 2 mM DTT, 8% glycerol, BSA, tRNA, 25 C 2 h; filter binding: 25 mM HEPES-KOH pH 7.9, 110 mM KOAc, 3.5 mM magnesium acetate, 2 mM DTT, BSA, tRNA, 8% glycerol, 25 C 2 h; competition: 18 mM HEPES-KOH pH 7.4, 100 mM KOAc, 3 mM magnesium acetate, 5 mM DTT, 0.01% IGEPAL, tRNA, 25 C 1 h; conditions: protein: recombinant, tags: FLAG
[5] = target: T2, FLAG-Ago1; test: RBNS; miR-11 guide; RBNS: 20 mM HEPES-KOH pH 7.9, 100 mM KOAc, 3.5 mM Mg(OAc) (magnesium acetate), 0.05% CHAPS, 2 mM DTT, 8% glycerol, BSA, tRNA, 25 C 2 h; filter binding: 25 mM HEPES-KOH pH 7.9, 110 mM KOAc, 3.5 mM magnesium acetate, 2 mM DTT, BSA, tRNA, 8% glycerol, 25 C 2 h; competition: 18 mM HEPES-KOH pH 7.4, 100 mM KOAc, 3 mM magnesium acetate, 5 mM DTT, 0.01% IGEPAL, tRNA, 25 C 1 h; conditions: protein: recombinant, tags: FLAG
[6] = target: T1, Ago1 (RISC assembled in embryo lysate); test: competition; let-7 guide (text: 110-fold); RBNS: 20 mM HEPES-KOH pH 7.9, 100 mM KOAc, 3.5 mM Mg(OAc) (magnesium acetate), 0.05% CHAPS, 2 mM DTT, 8% glycerol, BSA, tRNA, 25 C 2 h; filter binding: 25 mM HEPES-KOH pH 7.9, 110 mM KOAc, 3.5 mM magnesium acetate, 2 mM DTT, BSA, tRNA, 8% glycerol, 25 C 2 h; competition: 18 mM HEPES-KOH pH 7.4, 100 mM KOAc, 3 mM magnesium acetate, 5 mM DTT, 0.01% IGEPAL, tRNA, 25 C 1 h; conditions: protein: native; g2-g21, G:U at g4 and g5
[7] = target: T2, FLAG-Ago1; test: RBNS; miR-11 guide; bulge site analysis; RBNS: 20 mM HEPES-KOH pH 7.9, 100 mM KOAc, 3.5 mM Mg(OAc) (magnesium acetate), 0.05% CHAPS, 2 mM DTT, 8% glycerol, BSA, tRNA, 25 C 2 h; filter binding: 25 mM HEPES-KOH pH 7.9, 110 mM KOAc, 3.5 mM magnesium acetate, 2 mM DTT, BSA, tRNA, 8% glycerol, 25 C 2 h; competition: 18 mM HEPES-KOH pH 7.4, 100 mM KOAc, 3 mM magnesium acetate, 5 mM DTT, 0.01% IGEPAL, tRNA, 25 C 1 h; conditions: protein: recombinant; tags: FLAG; g2-g7 + t1A
[8] = target: T2, FLAG-Ago1; test: RBNS; miR-11 guide; G:U site analysis; RBNS: 20 mM HEPES-KOH pH 7.9, 100 mM KOAc, 3.5 mM Mg(OAc) (magnesium acetate), 0.05% CHAPS, 2 mM DTT, 8% glycerol, BSA, tRNA, 25 C 2 h; filter binding: 25 mM HEPES-KOH pH 7.9, 110 mM KOAc, 3.5 mM magnesium acetate, 2 mM DTT, BSA, tRNA, 8% glycerol, 25 C 2 h; competition: 18 mM HEPES-KOH pH 7.4, 100 mM KOAc, 3 mM magnesium acetate, 5 mM DTT, 0.01% IGEPAL, tRNA, 25 C 1 h; conditions: protein: recombinant; tags: FLAG; g2-g7 + t1A

T2 sequence (A1Z9J5 entry or part of it): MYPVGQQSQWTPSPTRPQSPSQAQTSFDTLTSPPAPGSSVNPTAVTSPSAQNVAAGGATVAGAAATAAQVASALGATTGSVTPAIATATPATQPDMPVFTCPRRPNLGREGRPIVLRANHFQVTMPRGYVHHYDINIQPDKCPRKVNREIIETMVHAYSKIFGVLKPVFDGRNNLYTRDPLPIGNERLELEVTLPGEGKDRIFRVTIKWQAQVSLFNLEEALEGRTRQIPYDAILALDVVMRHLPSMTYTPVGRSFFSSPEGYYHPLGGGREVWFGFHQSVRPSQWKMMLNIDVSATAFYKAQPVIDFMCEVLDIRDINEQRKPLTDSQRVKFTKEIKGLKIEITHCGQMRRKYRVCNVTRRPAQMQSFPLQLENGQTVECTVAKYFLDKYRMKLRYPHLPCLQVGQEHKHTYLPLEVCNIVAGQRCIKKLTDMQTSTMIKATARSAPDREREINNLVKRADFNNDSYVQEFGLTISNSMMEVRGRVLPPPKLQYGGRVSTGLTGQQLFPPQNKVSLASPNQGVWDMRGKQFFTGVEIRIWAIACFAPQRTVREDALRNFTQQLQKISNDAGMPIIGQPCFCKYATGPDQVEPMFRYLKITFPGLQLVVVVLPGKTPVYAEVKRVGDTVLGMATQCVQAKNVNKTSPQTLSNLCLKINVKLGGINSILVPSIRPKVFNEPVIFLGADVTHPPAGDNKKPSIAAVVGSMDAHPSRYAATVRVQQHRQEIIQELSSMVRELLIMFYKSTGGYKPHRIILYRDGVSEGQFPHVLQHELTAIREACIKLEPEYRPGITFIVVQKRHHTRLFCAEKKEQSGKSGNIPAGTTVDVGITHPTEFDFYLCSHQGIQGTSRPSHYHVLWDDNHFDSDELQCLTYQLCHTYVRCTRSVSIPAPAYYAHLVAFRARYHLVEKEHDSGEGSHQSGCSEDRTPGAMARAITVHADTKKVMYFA
T1 sequence (A1Z9J5 entry or part of it): as above

B1: let-7 / competitor G:U at g4 (dsRNA)
RNA 1: UGAGGUAGUAGGUUGUAUAGU
RNA 2: GAUACUAUACAACCUACUACUUCAACCU
modifications: 2'-O-methyl and phosphorothioate at t10-t11
B1: binds [1].

B2: let-7 / 8mer (dsRNA)
RNA 1: UGAGGUAGUAGGUUGUAUAGU
RNA 2: CUACCUCA
modifications: guide 5' phosphate
B2 was tested, and the Kd ([2]; guide g2-g8 + t1A, site in 20-nt random RBNS library) was 0.00173 nM.

B3: bantam / 6mer-m8 (dsRNA)
RNA 1: UGAGAUCAUUUUGAAAGCUGAUU
RNA 2: UGAUCU
modifications: guide 5' phosphate
Work on B3 yielded a Kd ([3]; g3-g8) of 1.01 nM.

B4: miR-184 / 7mer-A1 (dsRNA)
RNA 1: UGGACGGAGAACUGAUAAGGGC
RNA 2: CCGUCCA
modifications: guide 5' phosphate
Binder B4 has a Kd ([4]; g2-g7 + t1A) of 0.037 nM.

B5: miR-11 / 8mer-b5.6G (dsRNA)
RNA 1: CAUCACAGUCUGAGUUCUUGC
RNA 2: CUGGUGAUA
modifications: guide 5' phosphate
B5 showed a Kd ([5]; nucleation bulge G between t5 and t6) of 0.107 nM.

B6: miR-184 / 8mer-x4C (dsRNA)
RNA 1: UGGACGGAGAACUGAUAAGGGC
RNA 2: UCCGCCCA
modifications: guide 5' phosphate
For B6, the Kd ([4]; mismatch at t4) was about 0.13 nM.

B7: miR-184 / 6mer-m8 (dsRNA)
RNA 1: UGGACGGAGAACUGAUAAGGGC
RNA 2: UCCGUC
modifications: guide 5' phosphate
In the case of B7, the Kd ([4]; g3-g8) is reported as 0.321 nM.

B8: miR-184 / 7mer-m8,w2 (dsRNA)
RNA 1: UGGACGGAGAACUGAUAAGGGC
RNA 2: UCCGUCU
modifications: guide 5' phosphate
B8 was tested, and the Kd ([4]; G:U at g2) was 0.154 nM.

B9: bantam / 8mer (dsRNA)
RNA 1: UGAGAUCAUUUUGAAAGCUGAUU
RNA 2: UGAUCUCA
modifications: guide 5' phosphate
In the case of B9, the Kd ([3]; g2-g8 + t1A) is reported as 0.0189 nM.

B10: bantam / 7mer-m8,w2 (dsRNA)
RNA 1: UGAGAUCAUUUUGAAAGCUGAUU
RNA 2: UGAUCUU
modifications: guide 5' phosphate
Binder B10 has a Kd ([3]; G:U at g2) of 0.866 nM.

B11: miR-11 / 8mer-w8 (dsRNA)
RNA 1: CAUCACAGUCUGAGUUCUUGC
RNA 2: UUGUGAUA
modifications: guide 5' phosphate
For B11, the Kd ([5]; G:U at g8) was 0.0612 nM.

B12: let-7 / 8mer-b5.6A (dsRNA)
RNA 1: UGAGGUAGUAGGUUGUAUAGU
RNA 2: CUAACCUCA
modifications: guide 5' phosphate
In the case of B12, the Kd ([2]; nucleation bulge A between t5 and t6) is reported as 0.12 nM.

B13: let-7 / 8mer-w8 (dsRNA)
RNA 1: UGAGGUAGUAGGUUGUAUAGU
RNA 2: UUACCUCA
modifications: guide 5' phosphate
Work on B13 yielded a Kd ([2]; G:U at g8) of 0.0154 nM.

B14: let-7 / 7mer-m8,w2 (dsRNA)
RNA 1: UGAGGUAGUAGGUUGUAUAGU
RNA 2: CUACCUU
modifications: guide 5' phosphate
Binder B14 has a Kd ([2]; G:U at g2) of 0.278 nM.

B15: miR-184 / 8mer-b5.6C (printed b5.6CA) (dsRNA)
RNA 1: UGGACGGAGAACUGAUAAGGGC
RNA 2: UCCCGUCCA
modifications: guide 5' phosphate
B15 showed a Kd ([4]; nucleation bulge C between t5 and t6) of 0.038 nM.

B16: let-7 / competitor G:U at g4-g5 (dsRNA)
RNA 1: UGAGGUAGUAGGUUGUAUAGU
RNA 2: GAUACUAUACAACCUACUAUUUCAACCU
modifications: 2'-O-methyl and phosphorothioate at t10-t11
For B16, the binding signal [6] was 120 ± 20 fold Kd vs fully complementary.

B17: let-7 / 6mer-A1 (dsRNA)
RNA 1: UGAGGUAGUAGGUUGUAUAGU
RNA 2: ACCUCA
modifications: guide 5' phosphate
For B17, the Kd ([2]; g2-g6 + t1A) was 0.092 nM.

B18: miR-11 / 7mer-A1 (dsRNA)
RNA 1: CAUCACAGUCUGAGUUCUUGC
RNA 2: UGUGAUA
modifications: guide 5' phosphate
B18 was tested, and the Kd [7] was 0.07 nM and the Kd [8] was 0.0812 nM.

B19: let-7 / 6mer-m8 (dsRNA)
RNA 1: UGAGGUAGUAGGUUGUAUAGU
RNA 2: CUACCU
modifications: guide 5' phosphate
Binder B19 has a Kd ([2]; g3-g8) of 0.328 nM.

B20: let-7 / 7mer-A1 (dsRNA)
RNA 1: UGAGGUAGUAGGUUGUAUAGU
RNA 2: UACCUCA
modifications: guide 5' phosphate
B20 showed a Kd ([2]; g2-g7 + t1A) of 0.0221 nM.
